B1: soluble TRAIL (aa 118-291 of murine TRAIL) (ligand, UniProt P50592 118-291, looked up)
chain: PRGGRPQKVAAHITGITRRSNSALIPISKDGKTLGQKIESWESSRKGHSFLNHVLFRNGELVIEQEGLYYIYSQTYFRFQEAEDASKMVSKDKVRTKQLVQYIYKYTSYPDPIVLMKSARNSCWSRDAEYGLYSIYQGGLFELKKNDRIFVSVTNEHLMDLDQEASFFGAFLIN
notes: range 118-291

What was measured:
[1] = target: TRAIL receptor DR5 on SK-Hep1 human hepatoma cells (human) (UniProt O14763); experiment: cell-based or functional assay
[2] = target: T1, murine TWEAK, full length, on transiently transfected CHO cells (murine, UniProt O54907 1-249); experiment: flow cytometry on CHO cells transiently transfected with murine TWEAK, 4 C, detected with anti-mouse TRAIL Ab
T1 construct: whole, on cells; also called cell surface TWEAK
T1 sequence (looked up): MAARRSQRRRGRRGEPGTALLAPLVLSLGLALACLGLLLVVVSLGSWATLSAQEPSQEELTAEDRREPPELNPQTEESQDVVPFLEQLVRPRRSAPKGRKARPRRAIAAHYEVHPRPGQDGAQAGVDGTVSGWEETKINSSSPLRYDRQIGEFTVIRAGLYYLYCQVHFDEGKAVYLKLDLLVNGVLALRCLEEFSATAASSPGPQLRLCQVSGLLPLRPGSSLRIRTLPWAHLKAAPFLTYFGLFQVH
Description: B) CHO cells were transiently transfected with a murine TWEAK cDNA expression construct, and after 48 h, were incubated at 4° C. with purified Fn14-TRAIL or rTRAIL in sodium azide-containing buffer. The presence of membrane-bound TWEAK on transfectants, and the binding of Fn14-TRAIL to them, was verified by flow cytometry, using anti-mouse TWEAK Ab (B.1) and anti-mouse TRAIL Ab (B.2-5) as detecting Ab, respectively. (B.1) TWEAK is expressed on transfected CHO cells, as detected using anti-TWEAK Ab (solid black line) versus isotype control (filled histogram); (B.2) TRAIL is not detectable on CHO cells, when analyzed using anti-TRAIL Ab (solid black line) versus isotype control (filled histogram). (B.3 and B.4) TRAIL epitopes are enhanced when Fn14-TRAIL is added to TWEAK-expressing, as opposed to TWEAK-negative, CHO cells. Anti-TRAIL Ab and isotype control are represented by solid black line and filled histogram, respectively. […] Isotype control is shown as filled histogram.
To validate the identity of expressed Fn14-TRAIL, its ability to bind to Fn14's ligand, TWEAK, was assessed. To this end, CHO cells were transiently transfected with a murine TWEAK cDNA expression construct (in the pcDNA3 vector), and after 48 h, transfectants were incubated at 4° C. with purified Fn14-TRAIL or soluble TRAIL.

TRAIL receptor DR5 on SK-Hep1 human hepatoma cells (human), sequence (O14763 56-440): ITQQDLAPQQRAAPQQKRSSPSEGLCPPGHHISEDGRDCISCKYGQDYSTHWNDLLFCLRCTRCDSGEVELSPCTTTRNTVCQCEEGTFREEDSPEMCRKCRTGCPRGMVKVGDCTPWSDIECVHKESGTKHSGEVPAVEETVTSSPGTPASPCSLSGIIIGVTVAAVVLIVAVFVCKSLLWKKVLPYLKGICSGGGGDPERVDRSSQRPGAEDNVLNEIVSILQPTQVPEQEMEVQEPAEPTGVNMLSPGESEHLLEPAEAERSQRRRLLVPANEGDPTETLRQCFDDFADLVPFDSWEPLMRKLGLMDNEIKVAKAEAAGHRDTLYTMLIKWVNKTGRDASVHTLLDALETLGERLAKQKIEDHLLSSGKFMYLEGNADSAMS

| Molecule | killing effect on SK-Hep1 cells (24 h, trypan blue live/dead count) [1] [nM] | binding result [2] |
| --- | --- | --- |
| purified untagged human Fn14-TRAIL protein | 0.04 |  |
| B1 |  | no binding |
